According to PMC10875621:

Target: netrin-1 (UniProt O95631)

Substance: DCC-HaloTag (from UniProt P43146 26-1447) (receptor)
- percent of DCC-HaloTag speckles in grip (immobile) phase in growth-cone filopodia of hippocampal neurons on netrin-1-coated substrate, TIRF speckle imaging (15% grip on polylysine alone): 40%
